*1 amine or outer side, *2 acyl side, *3 side chain or, on linkers, in order; H or OH if unused. [ ]: non-standard residue; d: D form. The star is where a group is joined. Dnp = O=[N+]([O-])c1ccc(*)c([N+](=O)[O-])c1; C(Me) = CSC[C@H](N[*:1])C(=O)[*:2]
T1: collagenase 1 (UniProt P03956 100-469, limits assumed)
T1 sequence (looked up): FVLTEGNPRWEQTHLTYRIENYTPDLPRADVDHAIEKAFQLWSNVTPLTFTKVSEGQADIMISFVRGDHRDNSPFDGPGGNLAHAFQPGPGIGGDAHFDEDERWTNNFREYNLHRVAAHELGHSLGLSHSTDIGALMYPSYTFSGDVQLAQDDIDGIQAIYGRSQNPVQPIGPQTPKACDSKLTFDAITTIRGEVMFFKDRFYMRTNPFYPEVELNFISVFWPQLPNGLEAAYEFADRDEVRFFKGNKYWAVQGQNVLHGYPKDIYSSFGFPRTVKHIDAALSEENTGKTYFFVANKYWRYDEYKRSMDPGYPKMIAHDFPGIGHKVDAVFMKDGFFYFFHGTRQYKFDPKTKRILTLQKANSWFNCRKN

T2: human Gelatinase-A (human, UniProt P08253 110-660, limits assumed)
T2 sequence (looked up): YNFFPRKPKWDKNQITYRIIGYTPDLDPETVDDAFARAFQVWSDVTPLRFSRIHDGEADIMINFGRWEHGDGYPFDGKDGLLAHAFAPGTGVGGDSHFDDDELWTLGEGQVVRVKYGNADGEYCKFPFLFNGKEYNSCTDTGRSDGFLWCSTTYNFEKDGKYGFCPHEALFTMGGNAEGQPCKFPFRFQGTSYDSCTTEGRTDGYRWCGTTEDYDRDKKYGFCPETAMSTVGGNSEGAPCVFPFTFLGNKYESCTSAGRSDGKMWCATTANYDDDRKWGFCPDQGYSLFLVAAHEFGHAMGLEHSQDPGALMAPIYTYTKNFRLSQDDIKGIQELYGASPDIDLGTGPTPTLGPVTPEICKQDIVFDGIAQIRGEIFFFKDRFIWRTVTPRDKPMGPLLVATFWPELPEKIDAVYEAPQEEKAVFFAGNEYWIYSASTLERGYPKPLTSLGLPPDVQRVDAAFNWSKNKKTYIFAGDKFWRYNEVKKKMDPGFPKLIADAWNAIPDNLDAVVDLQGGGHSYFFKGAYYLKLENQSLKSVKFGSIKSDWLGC

B1: Dnp-GPLGLHGC(Me)-NH2 (peptide)
peptide: Dnp-GPLGLHG[C(Me)]-NH2
SMILES: CSC[C@H](NC(=O)CNC(=O)[C@H](Cc1c[nH]cn1)NC(=O)[C@H](CC(C)C)NC(=O)CNC(=O)[C@H](CC(C)C)NC(=O)[C@@H]1CCCN1C(=O)CNc1ccc([N+](=O)[O-])cc1[N+](=O)[O-])C(N)=O
B2: Dnp-GPLGFRVC(Me)-NH2 (peptide)
peptide: Dnp-GPLGFRV[C(Me)]-NH2
SMILES: CSC[C@H](NC(=O)[C@@H](NC(=O)[C@H](CCCNC(=N)N)NC(=O)[C@H](Cc1ccccc1)NC(=O)CNC(=O)[C@H](CC(C)C)NC(=O)[C@@H]1CCCN1C(=O)CNc1ccc([N+](=O)[O-])cc1[N+](=O)[O-])C(C)C)C(N)=O
B3: Dnp-GPLPFRGC(Me)-NH2 (peptide)
peptide: Dnp-GPLPFRG[C(Me)]-NH2
SMILES: CSC[C@H](NC(=O)CNC(=O)[C@H](CCCNC(=N)N)NC(=O)[C@H](Cc1ccccc1)NC(=O)[C@@H]1CCCN1C(=O)[C@H](CC(C)C)NC(=O)[C@@H]1CCCN1C(=O)CNc1ccc([N+](=O)[O-])cc1[N+](=O)[O-])C(N)=O
B4: Dnp-GPAPFRVC(Me)-NH2 (peptide)
peptide: Dnp-GPAPFRV[C(Me)]-NH2
SMILES: CSC[C@H](NC(=O)[C@@H](NC(=O)[C@H](CCCNC(=N)N)NC(=O)[C@H](Cc1ccccc1)NC(=O)[C@@H]1CCCN1C(=O)[C@H](C)NC(=O)[C@@H]1CCCN1C(=O)CNc1ccc([N+](=O)[O-])cc1[N+](=O)[O-])C(C)C)C(N)=O
B5: Dnp-GPLPFRVC(Me)-NH2 (peptide)
peptide: Dnp-GPLPFRV[C(Me)]-NH2
SMILES: CSC[C@H](NC(=O)[C@@H](NC(=O)[C@H](CCCNC(=N)N)NC(=O)[C@H](Cc1ccccc1)NC(=O)[C@@H]1CCCN1C(=O)[C@H](CC(C)C)NC(=O)[C@@H]1CCCN1C(=O)CNc1ccc([N+](=O)[O-])cc1[N+](=O)[O-])C(C)C)C(N)=O
B6: Dnp-GPSPFHVC(Me)-NH2 (peptide)
peptide: Dnp-GPSPFHV[C(Me)]-NH2
SMILES: CSC[C@H](NC(=O)[C@@H](NC(=O)[C@H](Cc1c[nH]cn1)NC(=O)[C@H](Cc1ccccc1)NC(=O)[C@@H]1CCCN1C(=O)[C@H](CO)NC(=O)[C@@H]1CCCN1C(=O)CNc1ccc([N+](=O)[O-])cc1[N+](=O)[O-])C(C)C)C(N)=O
B7: Dnp-GPAPFRGC(Me)-NH2 (peptide)
peptide: Dnp-GPAPFRG[C(Me)]-NH2
SMILES: CSC[C@H](NC(=O)CNC(=O)[C@H](CCCNC(=N)N)NC(=O)[C@H](Cc1ccccc1)NC(=O)[C@@H]1CCCN1C(=O)[C@H](C)NC(=O)[C@@H]1CCCN1C(=O)CNc1ccc([N+](=O)[O-])cc1[N+](=O)[O-])C(N)=O
B8: Dnp-VC(Me)PKGITSC(Me)VFR-NH2 (peptide)
peptide: Dnp-V[C(Me)]PKGITS[C(Me)]VFR-NH2
SMILES: CC[C@H](C)[C@H](NC(=O)CNC(=O)[C@H](CCCCN)NC(=O)[C@@H]1CCCN1C(=O)[C@H](CSC)NC(=O)[C@@H](Nc1ccc([N+](=O)[O-])cc1[N+](=O)[O-])C(C)C)C(=O)N[C@H](C(=O)N[C@@H](CO)C(=O)N[C@@H](CSC)C(=O)N[C@H](C(=O)N[C@@H](Cc1ccccc1)C(=O)N[C@@H](CCCNC(=N)N)C(N)=O)C(C)C)[C@@H](C)O
B9: Dnp-GPSELKG-NH2 (peptide)
peptide: Dnp-GPSELKG-NH2
SMILES: CC(C)C[C@H](NC(=O)[C@H](CCC(=O)O)NC(=O)[C@H](CO)NC(=O)[C@@H]1CCCN1C(=O)CNc1ccc([N+](=O)[O-])cc1[N+](=O)[O-])C(=O)N[C@@H](CCCCN)C(=O)NCC(N)=O
B10: Dnp-GPAPLHGC(Me)-NH2 (peptide)
peptide: Dnp-GPAPLHG[C(Me)]-NH2
SMILES: CSC[C@H](NC(=O)CNC(=O)[C@H](Cc1c[nH]cn1)NC(=O)[C@H](CC(C)C)NC(=O)[C@@H]1CCCN1C(=O)[C@H](C)NC(=O)[C@@H]1CCCN1C(=O)CNc1ccc([N+](=O)[O-])cc1[N+](=O)[O-])C(N)=O
B11: Dnp-GPLPFHVC(Me)-NH2 (peptide)
peptide: Dnp-GPLPFHV[C(Me)]-NH2
SMILES: CSC[C@H](NC(=O)[C@@H](NC(=O)[C@H](Cc1c[nH]cn1)NC(=O)[C@H](Cc1ccccc1)NC(=O)[C@@H]1CCCN1C(=O)[C@H](CC(C)C)NC(=O)[C@@H]1CCCN1C(=O)CNc1ccc([N+](=O)[O-])cc1[N+](=O)[O-])C(C)C)C(N)=O
B12: Dnp-GPLGFRGC(Me)-NH2 (peptide)
peptide: Dnp-GPLGFRG[C(Me)]-NH2
SMILES: CSC[C@H](NC(=O)CNC(=O)[C@H](CCCNC(=N)N)NC(=O)[C@H](Cc1ccccc1)NC(=O)CNC(=O)[C@H](CC(C)C)NC(=O)[C@@H]1CCCN1C(=O)CNc1ccc([N+](=O)[O-])cc1[N+](=O)[O-])C(N)=O
B13: Dnp-GPSPFRGC(Me)-NH2 (peptide)
peptide: Dnp-GPSPFRG[C(Me)]-NH2
SMILES: CSC[C@H](NC(=O)CNC(=O)[C@H](CCCNC(=N)N)NC(=O)[C@H](Cc1ccccc1)NC(=O)[C@@H]1CCCN1C(=O)[C@H](CO)NC(=O)[C@@H]1CCCN1C(=O)CNc1ccc([N+](=O)[O-])cc1[N+](=O)[O-])C(N)=O
B14: Dnp-PHPFRG-NH2 (peptide)
peptide: Dnp-PHPFRG-NH2
SMILES: N=C(N)NCCC[C@H](NC(=O)[C@H](Cc1ccccc1)NC(=O)[C@@H]1CCCN1C(=O)[C@H](Cc1c[nH]cn1)NC(=O)[C@@H]1CCCN1c1ccc([N+](=O)[O-])cc1[N+](=O)[O-])C(=O)NCC(N)=O
B15: Dnp-GPSPLHGC(Me)-NH2 (peptide)
peptide: Dnp-GPSPLHG[C(Me)]-NH2
SMILES: CSC[C@H](NC(=O)CNC(=O)[C@H](Cc1c[nH]cn1)NC(=O)[C@H](CC(C)C)NC(=O)[C@@H]1CCCN1C(=O)[C@H](CO)NC(=O)[C@@H]1CCCN1C(=O)CNc1ccc([N+](=O)[O-])cc1[N+](=O)[O-])C(N)=O

Target: T1, collagenase 1
Test: cell-based or functional assay

Going from B1 to B2, the “Selectivity v. Coll-3” value rises from 660 unitless to 17300 unitless.

Going from B3 to B4, the “Selectivity v. Coll-3” value rises from 429 unitless to 5790 unitless.

First: B5
Second: B6
The “Selectivity v. Coll-3” value of the first is lower: 550 unitless for the first, 1570 unitless for the second.

Compared with B7, B8 is lower in “Selectivity v. Coll-3” value: 4420 unitless for the first, 215 unitless for the second.

First: B9
Second: B10
The “Selectivity v. Coll-3” value of the first is lower: 470 unitless for the first, 473 unitless for the second.

Going from B11 to B12, the “Selectivity v. Coll-3” value rises from 2950 unitless to 10600 unitless.

Going from B13 to B14, the “Selectivity v. Coll-3” value falls from 2430 unitless to 2230 unitless.

With B15 the “Selectivity v. Coll-3” value was 274 unitless.

Target: stromelysin 1 (UniProt P08254 100-477, limits assumed)
Sequence (P08254 100-477 limits assumed): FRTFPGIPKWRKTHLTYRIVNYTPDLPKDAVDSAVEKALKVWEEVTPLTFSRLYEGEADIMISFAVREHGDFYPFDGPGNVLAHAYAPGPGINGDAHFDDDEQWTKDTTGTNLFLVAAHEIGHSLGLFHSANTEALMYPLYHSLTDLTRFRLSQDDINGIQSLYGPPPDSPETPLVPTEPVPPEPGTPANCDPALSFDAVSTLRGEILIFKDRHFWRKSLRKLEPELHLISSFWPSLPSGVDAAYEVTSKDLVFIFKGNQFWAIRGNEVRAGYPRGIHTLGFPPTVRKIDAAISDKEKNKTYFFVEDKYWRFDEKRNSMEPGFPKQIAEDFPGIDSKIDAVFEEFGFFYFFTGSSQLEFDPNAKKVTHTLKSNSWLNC
Test: cell-based or functional assay

Going from B1 to B2, the “Selectivity v. Coll-3” value falls from 10400 unitless to 3970 unitless.

Going from B3 to B4, the “Selectivity v. Coll-3” value falls from 814 unitless to 448 unitless.

First: B5
Second: B6
The “Selectivity v. Coll-3” value of the first is lower: 332 unitless for the first, 2100 unitless for the second.

Compared with B7, B8 is higher in “Selectivity v. Coll-3” value: 488 unitless for the first, 835 unitless for the second.

Compared with B9, B10 is lower in “Selectivity v. Coll-3” value: 831 unitless for the first, 620 unitless for the second.

Compared with B11, B12 is higher in “Selectivity v. Coll-3” value: 619 unitless for the first, 7290 unitless for the second.

First: B13
Second: B14
The “Selectivity v. Coll-3” value of the first is higher: 1390 unitless for the first, 1050 unitless for the second.

In the case of B15, the “Selectivity v. Coll-3” value is reported as 2990 unitless.

Target: T2, human Gelatinase-A
Test: cell-based or functional assay

Compared with B1, B2 is lower in “Selectivity v. Coll-3” value: 16 unitless for the first, 15 unitless for the second.

Going from B3 to B4, the “Selectivity v. Coll-3” value rises from 16 unitless to 37 unitless.

First: B5
Second: B6
The “Selectivity v. Coll-3” value of the first is higher: 36 unitless for the first, 18 unitless for the second.

First: B7
Second: B8
The “Selectivity v. Coll-3” value of the first is higher: 9 unitless for the first, 7 unitless for the second.

Going from B9 to B10, the “Selectivity v. Coll-3” value rises from 7 unitless to 12 unitless.

Going from B11 to B12, the “Selectivity v. Coll-3” value falls from 20 unitless to 10 unitless.

Going from B13 to B14, the “Selectivity v. Coll-3” value rises from 10 unitless to 28 unitless.

In the case of B15, the “Selectivity v. Coll-3” value is reported as 8 unitless.

Target: gelatinase B (UniProt P14780 107-707, limits assumed)
Sequence (P14780 107-707 limits assumed): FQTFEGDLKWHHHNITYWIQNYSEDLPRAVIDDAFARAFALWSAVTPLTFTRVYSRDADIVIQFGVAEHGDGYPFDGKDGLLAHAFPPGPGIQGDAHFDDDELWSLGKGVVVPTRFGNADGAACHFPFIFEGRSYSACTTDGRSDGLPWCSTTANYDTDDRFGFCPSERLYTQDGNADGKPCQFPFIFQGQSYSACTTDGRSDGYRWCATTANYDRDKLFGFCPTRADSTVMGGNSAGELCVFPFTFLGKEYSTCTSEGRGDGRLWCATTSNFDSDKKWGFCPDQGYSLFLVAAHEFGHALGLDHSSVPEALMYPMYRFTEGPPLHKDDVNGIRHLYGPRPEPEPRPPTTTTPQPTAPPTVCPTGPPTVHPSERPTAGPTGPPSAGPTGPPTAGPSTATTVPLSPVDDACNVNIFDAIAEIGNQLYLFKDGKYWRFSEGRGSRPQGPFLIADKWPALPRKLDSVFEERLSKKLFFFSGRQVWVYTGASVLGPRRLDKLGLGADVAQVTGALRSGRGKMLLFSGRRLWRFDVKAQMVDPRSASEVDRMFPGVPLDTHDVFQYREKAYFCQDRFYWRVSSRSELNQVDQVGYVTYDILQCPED
Test: cell-based or functional assay

First: B1
Second: B2
The “Selectivity v. Coll-3” value of the first is lower: 5 unitless for the first, 20 unitless for the second.

First: B3
Second: B4
The “Selectivity v. Coll-3” value of the first is lower: 8 unitless for the first, 82 unitless for the second.

Going from B5 to B6, the “Selectivity v. Coll-3” value rises from 21 unitless to 54 unitless.

Going from B7 to B8, the “Selectivity v. Coll-3” value falls from 14 unitless to 1 unitless.

First: B9
Second: B10
The “Selectivity v. Coll-3” value of the first is lower: 4 unitless for the first, 10 unitless for the second.

First: B11
Second: B12
The “Selectivity v. Coll-3” value of the first is higher: 18 unitless for the first, 7 unitless for the second.

Going from B13 to B14, the “Selectivity v. Coll-3” value falls from 13 unitless to 4 unitless.

B15 was tested, and the “Selectivity v. Coll-3” value was 7 unitless.

— patent US20030229005A1 (BIOZYME, published 2003)
